Assays:
[1] = molecular target: T1, S. pombe Uba1 (S. pombe) (UniProt O94609)
T1 sequence: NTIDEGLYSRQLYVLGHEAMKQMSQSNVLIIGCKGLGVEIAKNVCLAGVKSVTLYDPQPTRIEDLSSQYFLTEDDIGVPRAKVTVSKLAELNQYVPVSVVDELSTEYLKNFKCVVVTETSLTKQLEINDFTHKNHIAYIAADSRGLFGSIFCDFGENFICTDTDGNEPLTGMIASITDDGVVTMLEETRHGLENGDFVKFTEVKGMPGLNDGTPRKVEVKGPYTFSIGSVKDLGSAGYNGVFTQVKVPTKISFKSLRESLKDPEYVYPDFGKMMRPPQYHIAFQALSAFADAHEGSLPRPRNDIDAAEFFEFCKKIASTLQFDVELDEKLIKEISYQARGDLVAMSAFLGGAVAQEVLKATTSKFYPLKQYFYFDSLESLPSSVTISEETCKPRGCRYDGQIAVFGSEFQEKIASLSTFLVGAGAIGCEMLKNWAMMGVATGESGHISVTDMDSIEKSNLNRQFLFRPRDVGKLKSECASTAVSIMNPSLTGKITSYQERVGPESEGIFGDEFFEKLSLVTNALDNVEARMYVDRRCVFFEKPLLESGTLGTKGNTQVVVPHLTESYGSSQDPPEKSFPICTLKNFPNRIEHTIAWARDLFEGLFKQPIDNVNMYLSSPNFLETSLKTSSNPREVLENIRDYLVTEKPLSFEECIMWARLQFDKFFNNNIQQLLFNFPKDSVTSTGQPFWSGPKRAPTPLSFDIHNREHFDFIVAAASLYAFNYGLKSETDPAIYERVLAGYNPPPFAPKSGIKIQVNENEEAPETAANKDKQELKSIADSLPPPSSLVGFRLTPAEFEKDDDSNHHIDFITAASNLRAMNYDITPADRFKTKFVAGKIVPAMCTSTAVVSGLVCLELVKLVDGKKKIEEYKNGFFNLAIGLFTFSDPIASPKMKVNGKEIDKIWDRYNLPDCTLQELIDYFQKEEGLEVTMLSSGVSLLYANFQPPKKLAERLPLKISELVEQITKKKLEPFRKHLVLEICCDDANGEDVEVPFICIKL

[2] = molecular target: T2, S. cerevisiae Uba1 (a.a. 11–1024) (S. cerevisiae, UniProt P22515 11-1024, in the crystal: disulfide bond between the Uba1 and Cdc34 catalytic cysteines (cross-link)); test: crystal structure; S. cerevisiae Uba1-Cdc34^Δdist held by a disulfide bond between the catalytic cysteines, mixed with Ub, 1 mM ATP and 5 mM MgCl2; crystals at 18 °C in 0.2 M ammonium sulfate, 25% PEG 3,350, 0.1 M Bis-Tris pH 6.5; 2.07 Å; two copies in the asymmetric unit; conditions: both partners purified
T2 construct: residues 11-773 and 797-1024 built in the model; Cross-linked to Cdc34 only for the crystal; not cross-linked in the thioester transfer assays; also called ScUba1; E1; source: E. coli BL21 (DE3) Codon Plus, purified (Ni-NTA, gel filtration, MonoQ)
T2 sequence (P22515 11-1024): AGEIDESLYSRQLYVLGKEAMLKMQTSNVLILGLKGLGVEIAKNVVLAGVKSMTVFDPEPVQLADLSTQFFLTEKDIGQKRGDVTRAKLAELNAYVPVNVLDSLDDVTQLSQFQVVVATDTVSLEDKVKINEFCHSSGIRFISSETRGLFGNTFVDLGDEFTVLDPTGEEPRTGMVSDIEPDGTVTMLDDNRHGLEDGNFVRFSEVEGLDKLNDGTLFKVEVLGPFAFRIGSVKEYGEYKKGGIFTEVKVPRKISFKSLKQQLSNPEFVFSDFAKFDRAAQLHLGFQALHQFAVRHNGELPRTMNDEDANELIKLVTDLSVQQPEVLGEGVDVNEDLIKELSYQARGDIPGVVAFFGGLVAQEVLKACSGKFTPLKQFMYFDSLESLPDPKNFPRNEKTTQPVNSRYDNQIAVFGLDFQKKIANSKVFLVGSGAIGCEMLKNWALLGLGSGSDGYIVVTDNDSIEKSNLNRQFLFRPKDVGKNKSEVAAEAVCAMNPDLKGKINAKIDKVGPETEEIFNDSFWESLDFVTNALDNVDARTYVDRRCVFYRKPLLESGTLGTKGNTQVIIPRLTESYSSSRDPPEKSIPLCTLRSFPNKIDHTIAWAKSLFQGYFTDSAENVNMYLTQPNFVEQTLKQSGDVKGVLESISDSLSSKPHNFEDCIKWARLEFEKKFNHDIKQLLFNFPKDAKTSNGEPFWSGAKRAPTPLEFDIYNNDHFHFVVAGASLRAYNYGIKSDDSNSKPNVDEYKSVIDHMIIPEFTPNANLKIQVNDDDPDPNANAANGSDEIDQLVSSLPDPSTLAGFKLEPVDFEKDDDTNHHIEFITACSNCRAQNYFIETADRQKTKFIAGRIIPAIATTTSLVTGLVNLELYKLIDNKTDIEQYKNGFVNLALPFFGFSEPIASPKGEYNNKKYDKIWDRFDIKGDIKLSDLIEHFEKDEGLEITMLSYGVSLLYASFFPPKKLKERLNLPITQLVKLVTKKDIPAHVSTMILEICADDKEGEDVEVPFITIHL

Ubc4 K4S (from UniProt P46595 1-147) (enzyme)
E1-E2 thioester transfer assay: Ubc4 K4S (fold loss of activity) [1]: 2

B1: S. cerevisiae Cdc34^Δdist (enzyme, UniProt P14682 1-195, looked up)
chain: MSSRKSTASSLLLRQYRELTDPKKAIPSFHIELEDDSNIFTWNIGVMVLNEDSIYHGGFFKAQMRFPEDFPFSPPQFRFTPAIYHPNVYRDGRLCISILHQSGDPMTDEPDAETWSPVQTVESVLISIVSLLEDPNINSPANVDAAVDYRKNPEQYKQRVKMEVERSKQDIPKGFIMPTSESAYISQSKLDEPES
modifications: in the crystal with Uba1: disulfide bond between the Uba1 and Cdc34 catalytic cysteines (cross-link)
notes: Cdc34, E2 ubiquitin-conjugating enzyme, S. cerevisiae; construct lacking CTD^dist (residues 196-295), made by a stop codon in Cdc34^FL; residues 3-102 and 112-181 built in the complex; Used here also as the wild-type Cdc34 of the thioester transfer assays with Uba1 mutants; also called ScCdc34^Δdist; source: E. coli BL21 (DE3) Codon Plus, purified
binding result [2]: binds

B2: Ubc15 K12A (enzyme)
chain: MPSSASEQLLRAQLKEIQKNPPQGFSVGLVDDKSIFEWEVMIIGPEDTLYEGGFFHATLSFPQDYPLMPPKMKFTTEIWHPNVHPNGEVCISILHPPGDDKYGYEDAGERWLPVHSPETILISVISMLSSPNDESPANIDAAKEFRENPQEFKKRVRRLVRRSIEMI
E1-E2 thioester transfer assay (50 nM E1, 60 s): Ubc15 K12A (fold loss of activity) [1]: 5

From paper PMC6656757, “Structural insights into E1 recognition and the ubiquitin-conjugating activity of the E2 enzyme Cdc34” (Nature Communications, 2019)
